From patent publication US20230348569A1 come the findings set out here.

This test addresses SARS-CoV-2 spike protein variant V376F on VSV pseudoparticles (SARS-CoV-2) (UniProt P0DTC2). As to the kind of experiment: cell-based or functional assay.

Consider mAb10987 (antibody), for which the Neutralization IC50 came out at 17.8 pM.
